Results on nine variants are retold here after FireProtDB (doi:10.1006/jmbi.2001.4521).

B1: Growth factor receptor-bound protein 2, Q08012 (parent)
chain: MEAIAKHDFSATADDELSFRKTQILKILNMEDDSNWYRAELDGKEGLIPSNYIEMKNHDWYYGRITRADAEKLLSNKHEGAFLIRISESSPGDFSLSVKCPDGVQHFKVLRDAQSKFFLWVVKFNSLNELVEYHRTASVSRSQDVKLRDMIPEEMLVQALYDFVPQESGELDFRRGDVITVTDRSDENWWNGEIGNRKGIFPATYVTPYHS

In this series the parent is B1. To be noted: Drosophila melanogaster, pH 6, Thermal, CD, phosphate 50 mM, Na2SO4 0.4 M, structure 2A36, whole UniProt chain shown; for unfolding free energy: 25 °C.

Usually Tm stands for the temperature at the midpoint of the melting transition. Consider T22D, for which the unfolding free energy was found to be 3.3 kcal/mol; the Tm turned out to be 73.1 °C; the “change of melting temperature, mutant - wild type (higher = more stable)” value (“change of melting temperature, mutant” below) is 9.4 °C.
The matching figures for T22F: 3.1 kcal/mol, 66.7 °C and 3 °C.
For T22A, in that order: 2.2 kcal/mol, 66.9 °C and 3.2 °C.
For T22S, in that order: 2.4 kcal/mol, 63.5 °C and -0.2 °C.
Regarding T22K, the unfolding free energy came out at 1.8 kcal/mol; the Tm turned out to be 65 °C; the “change of melting temperature, mutant” value is 1.3 °C.
The matching figures for T22G: 4.2 kcal/mol, 84.8 °C and 21.1 °C.
For T22L, the midpoint of thermal melting (Tm) came out at 58 °C and the “change of melting temperature, mutant” value was -5.7 °C.
T22N: the unfolding free energy worked out at 3.1 kcal/mol.
As to T22G Q23D, the Tm stood at 88.9 °C and the “change of melting temperature, mutant” value was determined as 25.2 °C.
